From PMC5449658

Experiments:
[1] = target: TacAT^WT complex (one H6-TacT with one TacA) (Salmonella enterica subsp. enterica serovar Typhimurium LT2) (UniProt Q8ZL98); experiment: SEC; Superose 12 10/300 GL; 50 mM HEPES pH 7.0 at 4°C, 150 mM NaCl, 20% glycerol; co-purified TacAT complexes applied; molecular weight from a standard curve of gel filtration standards
[2] = target: H6-TacT^WT toxin (Gcn5-related N-acetyltransferase TacT) (Salmonella enterica subsp. enterica serovar Typhimurium LT2) (UniProt Q8ZL98); experiment: SEC

Chain of UniProt Q8ZL98 (Q8ZL98 whole entry): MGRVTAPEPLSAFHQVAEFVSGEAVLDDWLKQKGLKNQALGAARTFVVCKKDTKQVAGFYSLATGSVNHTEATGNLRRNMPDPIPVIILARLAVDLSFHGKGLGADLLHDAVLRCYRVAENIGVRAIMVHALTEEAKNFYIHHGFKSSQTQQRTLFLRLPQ

Substance | stoichiometry N [1] | stoichiometry N [2]
TacAT^WT complex (one H6-TacT with one TacA) (from UniProt Q8ZL98 1-161) | 2 | –
TacA^WT antitoxin (tagless native TacA) (natural protein) | – | 1
